Laboratory results published in the supplement of paper PMC7877785.
± gives the uncertainty stated by the source.

Test: self-splicing fitness, log relative to wild type (ln ratio); higher = more splicing; Tetrahymena group I intron in knt gene, E. coli kanamycin selection, DiMSum; sequences stand for … in CUCUCU…GGAGGGAAAAGUUAUCAGGCAUGCACCUGGUAGCUAGUCUUUAAACCAAUAGAUUGCAUCGGUUUAAAAGGCAAGACCGUCAAAUUGCGGGAAAGGGGUCAACAGCCGUUCAGUACCAAGUCUCAGGGGAAACUUUGAGAUGGCCUUGCAAAGGGUAUGGUAAUAAGCUGACGGACAUGGUCCUAACCACGCAGCCAAGUCCUAAGUCAACAGAUCUUCUGUUGAUAUGGAUGCAGUUCACAGACUAAAUGUCGGUCGGGGAAGAUGUAUUCUUCUCAUAAGAUAUAGUCGGACCUCUCCUUAAUGGGAGCUAGCGGAUGAAGUGAUGCAACACUGGAGCCGCUGGGAACUAAUUUGUAUGCGAAAGUAUAUUGAUUAGUUUUGGAGUACUCGUGGUCG
Method in brief: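 Fitness was computed with DiMSum as the error-weighted combination of replicate fold changes, kanamycin versus none, each normalised to wild type. The library randomised all eight intron nucleotides of the P1ex region, with the intron placed in the knt kanamycin-resistance gene on pET-22b(+) in E. coli BL21(DE3). Six replicate transformations were grown overnight at 37°C or 30°C on LB agar with or without 25 μg/mL kanamycin, plus 100 μg/mL carbenicillin, 50 μM IPTG and 0.2% rhamnose. Pooled colonies were amplicon-sequenced on an Illumina HiSeq 2500.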

Sequence	self-splicing fitness (ln) (30 °C)	self-splicing fitness (ln) (37 °C)
AUAUAGCAAUAUUACGCAAA	-1.94 ± 0.24	-1.69 ± 0.24
CCCCAGCAAUAUUACGUGUA	-3.17 ± 0.11	-2.75 ± 0.13
UAUAAGCAAUAUUACGGUAC	-3.46 ± 0.3	-2.23 ± 0.29
GAGCAGCAAUAUUACGAGCA	-0.982 ± 0.11	-0.888 ± 0.13
GCACAGCAAUAUUACGAUUU	-0.869 ± 0.042	-0.0519 ± 0.058
UUUAAGCAAUAUUACGUAGU	-2.62 ± 0.13	-2.13 ± 0.18
UCGAAGCAAUAUUACGGAUC	-3.14 ± 0.23	-2.64 ± 0.37
CCAAAGCAAUAUUACGGCUC	-3.44 ± 0.29	-2.32 ± 0.25
CAGAAGCAAUAUUACGGGUA	-2.8 ± 0.16	-2.25 ± 0.13
UACAAGCAAUAUUACGGCAC	-1.64 ± 0.14	-0.345 ± 0.2
GACGAGCAAUAUUACGUAAA	-2.58 ± 0.18	
AUUGAGCAAUAUUACGUCAC	-3.9 ± 0.34	-2.34 ± 0.39
UACGAGCAAUAUUACGACCG	-1.8 ± 0.45	
CCCUAGCAAUAUUACGGAAU	-3.36 ± 0.37	-1.82 ± 0.31
CCUCAGCAAUAUUACGUACC	-4.27 ± 0.25	-3.42 ± 0.39
UCCGAGCAAUAUUACGUUGC	-3.03 ± 0.21	-2.16 ± 0.24
UGUAAGCAAUAUUACGGGUA	-1.61 ± 0.22	-0.187 ± 0.16
GUGAAGCAAUAUUACGUAGU	-2.19 ± 0.064	-1.1 ± 0.08
AUGUAGCAAUAUUACGCGUU	-3.57 ± 0.18	-1.99 ± 0.17
CAAGAGCAAUAUUACGCUGC	-3.4 ± 0.41	-2.01 ± 0.24
GCUCAGCAAUAUUACGAUGU	0.0549 ± 0.065	-0.345 ± 0.077
GUCAAGCAAUAUUACGUUCG	-2.63 ± 0.12	-2.1 ± 0.15
GUAUAGCAAUAUUACGAUGA	-1.62 ± 0.16	-0.697 ± 0.14
GGUAAGCAAUAUUACGGUUU	-0.707 ± 0.056	-0.0713 ± 0.083

Sequence	self-splicing fitness (ln) (30 °C)	self-splicing fitness (ln) (37 °C)
CAAAAGCAAUAUUACGAACC	-1.63 ± 0.31	-1.45 ± 0.28
GGUUAGCAAUAUUACGAGCG	-0.684 ± 0.12	-0.0379 ± 0.12
AACCAGCAAUAUUACGCACA	-0.335 ± 0.054	0.326 ± 0.072
GCGCAGCAAUAUUACGUUUG	-1.86 ± 0.14	-1.76 ± 0.14
GCAGAGCAAUAUUACGCGGA	-3.11 ± 0.34	-2.91 ± 0.35
UGAAAGCAAUAUUACGCCUA	0.122 ± 0.093	0.207 ± 0.098
GCCCAGCAAUAUUACGAAUG	-4.15 ± 0.24	-2.26 ± 0.23
AAACAGCAAUAUUACGAGAA		-1.95 ± 0.17
UAUAAGCAAUAUUACGAUCC		-2.05 ± 0.37
UGAAAGCAAUAUUACGUGUA	-1.5 ± 0.091	-1.08 ± 0.11
GGAGAGCAAUAUUACGCCUA	-2.28 ± 0.32	-2.48 ± 0.34
CUAAAGCAAUAUUACGCGCU	-3.15 ± 0.16	-2.06 ± 0.23
GUAGAGCAAUAUUACGUACU	-2.23 ± 0.24	-1.92 ± 0.24
AUGAAGCAAUAUUACGUACC	-0.639 ± 0.067	0.16 ± 0.1
UACCAGCAAUAUUACGGCUU	-0.562 ± 0.061	0.59 ± 0.097
CAGGAGCAAUAUUACGGUAU	-3.42 ± 0.15	-2.86 ± 0.16
CCUGAGCAAUAUUACGGAAA	-3.53 ± 0.35	-1.92 ± 0.28
UUUAAGCAAUAUUACGUAGG	-0.802 ± 0.058	-0.287 ± 0.086
ACUCAGCAAUAUUACGGACA	-1.02 ± 0.1	-1.06 ± 0.12
AUAGAGCAAUAUUACGCACA	-0.178 ± 0.09	-0.032 ± 0.11
CUAAAGCAAUAUUACGUUAG	-2.33 ± 0.093	-1.77 ± 0.1
GUCAAGCAAUAUUACGGUAC	-3.07 ± 0.15	-0.924 ± 0.11
CACCAGCAAUAUUACGGGGU	-4.29 ± 0.2	-3.49 ± 0.29
GCCGAGCAAUAUUACGACCA	-2.62 ± 0.3	-2.31 ± 0.31
